The values that follow come from patent US20030204066A1.

The target of the assay is human tumor necrosis factor-α (TNFα) (human) (UniProt P01375). The assay can be described thus: cell-based or functional assay.
human tumor necrosis factor-α (TNFα) (human), sequence (P01375 77-233): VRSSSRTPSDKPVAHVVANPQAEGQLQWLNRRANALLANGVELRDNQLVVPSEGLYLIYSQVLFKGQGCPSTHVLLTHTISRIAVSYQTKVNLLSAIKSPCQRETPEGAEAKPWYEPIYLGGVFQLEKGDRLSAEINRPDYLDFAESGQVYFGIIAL

B1: chimeric mouse/human IgG1 anti-platelet mAb (7E3) (antibody, INN chains, looked up, V domains shown)
VH: EVQLQQSGTVLARPGASVKMSCEASGYTFTNYWMHWVKQRPGQGLEWIGAIYPGNSDTSYIQKFKGKAKLTAVTSTTSVYMELSSLTNEDSAVYYCTLYDGYYVFAYWGQGTLVTVSA
VL: EIVLTQSPVTLSVTPGDSVSLSCRASRDISNNLHWFQQTSHESPRLLIKYASQSMSGIPSRFSGSGSGTDFTLSINSVETEDFGMYFCQQTNSWPYTFGGGTKLEIK
modifications: chimeric IgG1
For B1, the IL-6 secreted by FS-4 fibroblasts (ng/ml) at 0.3 ng/ml TNF, 4 µg/ml antibody stood at 1.6 ng/mL; the IL-6 secreted by FS-4 fibroblasts (ng/ml) at 1.5 ng/ml TNF, 4 µg/ml antibody is 1.96 ng/mL; the IL-6 secreted by FS-4 fibroblasts (ng/ml) at 7.5 ng/ml TNF, 4 µg/ml antibody amounted to 2.16 ng/mL.
